Columns and labels:
P66 (rabbit ANGPTL7-his) = biological target: T1, P66 (rabbit ANGPTL7-his) (rabbit, UniProt G1T4P1 27-344); assay: BLI Octet HTX; IgG on AHC sensor; P66 at 200 nM; 1:1 fit
T1 construct: mature; also called rabbit ANGPTL7 protein
T1 sequence: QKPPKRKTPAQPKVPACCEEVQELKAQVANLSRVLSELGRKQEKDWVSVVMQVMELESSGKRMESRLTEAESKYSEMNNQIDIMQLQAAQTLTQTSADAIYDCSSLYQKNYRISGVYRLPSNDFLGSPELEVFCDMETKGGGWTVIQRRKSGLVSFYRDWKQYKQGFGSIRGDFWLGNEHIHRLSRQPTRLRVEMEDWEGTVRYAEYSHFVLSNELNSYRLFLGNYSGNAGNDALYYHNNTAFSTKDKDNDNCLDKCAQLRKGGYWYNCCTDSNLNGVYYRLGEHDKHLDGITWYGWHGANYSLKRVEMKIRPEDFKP
How it was run: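 Biolayer interferometry in PBS pH 7.4 with 0.1 mg/ml BSA, 0.05% sodium azide, 0.02% Tween 20; antibodies at 50 nM loaded on AHC sensors for 5 min. Monovalent analyte at 200 nM: 5 min association, 10 min dissociation; end-of-association response (nm) recorded, kinetics by 1:1 fit.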

[1] = biological target: T2, Pext-01 (huANGTPL7-FLAG multimer) (human, UniProt O43827 27-346); assay: BLI Octet HTX; IgG on AHC sensor; Pext-01 at 100 nM; 1:1 fit; apparent KD
T2 construct: also called PExt-1; human wild type ANGPTL7 multimer; not shown: FLAG tag
T2 sequence: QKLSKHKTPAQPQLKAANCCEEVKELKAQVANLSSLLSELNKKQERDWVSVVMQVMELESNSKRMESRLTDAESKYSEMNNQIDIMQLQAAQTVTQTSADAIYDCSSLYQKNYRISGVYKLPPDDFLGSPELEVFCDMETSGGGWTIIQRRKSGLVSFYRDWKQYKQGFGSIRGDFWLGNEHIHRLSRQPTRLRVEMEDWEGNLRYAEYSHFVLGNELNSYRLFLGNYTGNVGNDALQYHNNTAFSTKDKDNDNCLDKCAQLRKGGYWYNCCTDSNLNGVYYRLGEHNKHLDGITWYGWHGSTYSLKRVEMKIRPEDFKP
Protocol: (§1) Experiments were also conducted to determine the reactivity and dissociation constants (KD) of anti-ANGPTL7 antibodies with the human ANGPTL7 multimer protein. Binding experiments were performed on Octet HTX (ForteBio) in 1×PBS, pH 7.4, 0.1 mg/ml BSA, 0.05% Sodium Azide, and 0.02% Tween 20. Antibodies at a concentration of 50 nM were loaded on pre-hydrated AHC biosensors for 5 mi. The loaded sensors were dipped into Pext-01 (huANGTPL7-FLAG) at a concentration of 100 nM for 5 min of association, followed by 10 min of dissociation. […] Responses (nm) at the end of association were also determined (Table 7).

[2] = biological target: T2, Pext-01 (huANGTPL7-FLAG multimer); assay: BLI Octet HTX; IgG on AHC sensor; Pext-01 at 100 nM
Protocol: as §1

[3] = biological target: T3, P60 (huANGPTL7-Fibrinogen-his) (human, UniProt O43827 129-343); assay: BLI Octet HTX; IgG on AHC sensor; P60 at 200 nM; 1:1 fit
T3 construct: also called human ANGPTL7 fibrinogen domain; not shown: C-terminal short linker and His tag
T3 sequence: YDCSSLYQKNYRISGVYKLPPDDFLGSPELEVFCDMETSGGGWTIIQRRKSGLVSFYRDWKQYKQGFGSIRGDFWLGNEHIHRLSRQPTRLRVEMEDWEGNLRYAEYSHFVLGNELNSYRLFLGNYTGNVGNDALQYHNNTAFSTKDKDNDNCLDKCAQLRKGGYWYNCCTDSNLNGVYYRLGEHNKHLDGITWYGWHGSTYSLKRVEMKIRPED
How it was run: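 Anti-ANGPTL7 IgG at 50 nM loaded 5 min on AHC biosensors, then dipped in monovalent P60 at 200 nM: 5 min association, 10 min dissociation.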

[4] = biological target: T3, P60 (huANGPTL7-Fibrinogen-his); assay: BLI Octet HTX; IgG on AHC sensor; P60 at 200 nM
Protocol: ANGPTL7 Antibody Kinetics. Experiments were conducted to determine the reactivity and dissociation constants (KD) of anti-ANGPTL7 antibodies with the human fibrinogen domain of the ANGPTL7 protein. Binding experiments were performed on Octet HTX (ForteBio) in 1×PBS, pH 7.4, 0.1 mg/ml BSA, 0.05% Sodium Azide, and 0.02 Tween 20. Antibodies at a concentration of 50 nM were loaded on pre-hydrated AHC biosensors for 5 min. The loaded sensors were dipped into monovalent P60 (huANGPTL7-Fibrinogen-his) at a concentration of 200 nM for 5 min association, followed by 10 min dissociation. […] Responses (nm) at the end of association were also determined (Table 2).

[5] = biological target: T4, P63 (huANGTPL7-GGPGG_sub-his) (human, UniProt O43827 27-346); assay: BLI Octet HTX; IgG on AHC sensor; P63 at 100 nM
T4 construct: also called full length human ANGPTL7 monomeric variant L59 GGPGG; not shown: C-terminal short linker and His tag
T4 sequence: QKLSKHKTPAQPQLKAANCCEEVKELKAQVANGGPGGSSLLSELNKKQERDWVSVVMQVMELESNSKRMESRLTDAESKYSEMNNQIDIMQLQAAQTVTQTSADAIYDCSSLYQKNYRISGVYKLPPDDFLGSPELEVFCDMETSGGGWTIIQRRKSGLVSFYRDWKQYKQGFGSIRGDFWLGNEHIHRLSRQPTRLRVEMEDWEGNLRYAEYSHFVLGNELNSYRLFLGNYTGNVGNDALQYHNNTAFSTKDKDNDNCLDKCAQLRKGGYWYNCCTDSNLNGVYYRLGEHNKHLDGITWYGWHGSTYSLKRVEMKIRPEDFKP
Protocol: Experiments were also conducted to determine the reactivity and dissociation constants (KD) of anti-ANGPTL7 antibodies with the human ANGPTL7 GGPGG_sub-his protein. Binding experiments were performed on Octet HTX (ForteBo) in 1×PBS, pH 7.4, 0.1 mg/mi BSA, 0.05% Sodium Azide, and 0.02% Tween 20. Antibodies at a concentration of 50 nM were loaded on pre-hydrated AHC biosensors for 5 min. The loaded sensors were dipped into monovalent P63 (huANGTPL7-GGPGG_sub-his) at a concentration of 100 nM for 5 min of association, followed by 10 min of dissociation.

B1: ATX-P-443 (antibody, human IgG1, kappa, N297A, V domains shown)
VH: QVQLVQSGAEVKKPGASVKVSCKASGYTFTSYGISWVRQAPGQGLEWMGWIIAYNGNTNYAQKLQGRITMTTNTSTNTAYMELRSLRSDDTAVYYCGRDTGFSFDYWGQGTLVTVSS
VL: not shown
notes: Full chains (VH + hIgG1-Agly-Fc)
P66 (rabbit ANGPTL7-his)
  Response: 0.03 nm
[1]
  Response: 0.03 nm
[2]
  binding result: no binding (tested: 100 nM)
[3]
  Response: 0.01 nm
[4]
  binding result: no binding (tested: 200 nM)
[5]
  binding result: no binding (tested: 100 nM)

B2: ATX-P-428 (antibody, human IgG1, kappa, N297A, V domains shown)
VH: QVQLVQSGAEVKKPGASVKVSCKASGYTFSSYGISWVRQAPGQGLEWMGWISAYNGNTNYAQNLRGRVAMTTDTSTTTAYMELRSLRSDDTAVYYCARVSLVWFGELPRGFDYWGQGTLVTVSS
VL: not shown
notes: as for B1
P66 (rabbit ANGPTL7-his)
  Response: 0.04 nm
[1]
  Response: 0.05 nm
[2]
  binding result: no binding (tested: 100 nM)
[3]
  Response: 0.02 nm
[4]
  binding result: no binding (tested: 200 nM)
[5]
  binding result: no binding (tested: 100 nM)

B3: ATX-P-449 (antibody, human IgG1, kappa, N297A, V domains shown)
VH: QVQLVESGGGVVQPGRSLRLSCAASGFAFSSYGMHWVRQAPGKGLEWVAVISYYGSNKYYADSVKGRFTISRDNSKNTLYLQMNSLRAEDTAVYHCARGITMDVWGKGTTVTVSS
VL: EIVLTQSPATLSLSPGERATLSCRASQSVSSYLAWYQQKPGQAPRLLIYDASNRATGIPARFSGSGSGTDFTLTISSLEPEDFAVYYCQQRSNWPLTFGGGTKVEIKR
notes: as for B1
P66 (rabbit ANGPTL7-his)
  Kd: 0.626 nM
  Response: 0.74 nm
[1]
  Response: 0.65 nm
[3]
  Response: 0.08 nm
[4]
  binding result: no binding (tested: 200 nM)
[5]
  binding result: no binding (tested: 100 nM)

Reference: patent US20250296996A1 (BROADWING BIO, published 2025)
